B2: human NUFIP2 (aa 255–411) (domain or fragment, UniProt Q7Z417 255-411, looked up)
chain: KQGLETFKPDYSEQKGNRVDGSKPIWKYETGPGGTSRGKPAVGDMLRKSSDSKPGVSSKKFDDRPKGKHASAVASKEDSWTLFKPPPVFPVDNSSAKIVPKISYASKVKENLNKTIQNSSVSPTSSSSSSSSTGETQTQSSSRLSQVPMSALKSVTS
notes: His6-SUMO cleaved off by PreScission protease; source: E. coli BL21(DE3)pRIL, purified (HisTrap, ion exchange, Superdex 75); not shown: His6-SUMO, N-terminal, cleaved

Key:
[1] = biological target: B2; assay: SPR; BIACORE 3000; Roquin (aa 2–441) immobilised; 4 μM NUFIP2 (aa 255–411) injected together with 0.016, 0.063, 0.25 or 1 μM FMRP (aa 1–132); 250 mM NaCl, 0.05% Tween20, 10 mM HEPES; conditions: both partners purified
[2] = biological target: T1, mouse Roquin-1 (aa 2–441) (mouse, UniProt Q4VGL6 2-441); assay: SPR; BIACORE 3000; Roquin (aa 2–441) immobilised on CM5 chip by amine coupling; NUFIP2 (aa 255–411) injected at 0.063-4 μM, 30 μL/min, 20 °C; 150 mM NaCl, 0.05% Tween20, 10 mM HEPES; steady-state analysis; conditions: both partners purified
T1 construct: mouse Roquin-1 aa 2-441; also called Roquin (aa 2–441)
T1 sequence (looked up): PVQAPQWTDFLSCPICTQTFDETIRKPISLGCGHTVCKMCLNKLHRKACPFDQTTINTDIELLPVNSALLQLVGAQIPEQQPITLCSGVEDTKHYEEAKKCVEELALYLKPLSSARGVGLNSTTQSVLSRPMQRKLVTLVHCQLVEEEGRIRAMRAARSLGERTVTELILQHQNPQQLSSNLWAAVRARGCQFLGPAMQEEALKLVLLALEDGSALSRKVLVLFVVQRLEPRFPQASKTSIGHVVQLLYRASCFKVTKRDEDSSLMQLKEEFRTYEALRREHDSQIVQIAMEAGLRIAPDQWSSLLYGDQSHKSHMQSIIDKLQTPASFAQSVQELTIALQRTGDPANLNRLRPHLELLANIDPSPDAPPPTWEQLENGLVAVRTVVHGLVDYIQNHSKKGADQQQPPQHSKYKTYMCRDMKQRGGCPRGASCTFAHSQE

B1: mouse Fmrp (aa 1–132) (domain or fragment)
chain: not shown
notes: His6-GST cut off by PreScission protease; source: E. coli BL21Star(DE3), purified (HisTrap, GSTTrap, Superdex 75); not shown: His6-GST, N-terminal, cleaved
**Q.** Does B1 bind [1]?
**A.** binds

**Q.** How did the Kd [2] turn out when B2 was run?
**A.** 182 nM

Source: publication PMC5775257, “Binding of NUFIP2 to Roquin promotes recognition and regulation of ICOS mRNA” (Nature Communications, 2018)
